Measured values as given in patent US20030017170A1 (BURNHAM INSTITUTE, published 2003).
Positions of bridges follow the written chain, without caps; N, C: chain ends. No end group written: not given here.

B1: synthetic cyclic CIELLQARC (SEQ ID NO:13) peptide (peptide)
peptide: CIELLQARC
modifications: disulfide 1-9 (inferred)
notes: Synthetic peptide cyclised by a disulfide bond; also called cyclic heptapeptide

Key:
[1] = molecular target: E-selectin:IgG chimera (UniProt P16581); test: competition ELISA: inhibition of sLe^x-PAA-biotin binding to coated E-selectin:IgG
E-selectin:IgG chimera (UniProt P16581), sequence (P16581 22-301, change not shown): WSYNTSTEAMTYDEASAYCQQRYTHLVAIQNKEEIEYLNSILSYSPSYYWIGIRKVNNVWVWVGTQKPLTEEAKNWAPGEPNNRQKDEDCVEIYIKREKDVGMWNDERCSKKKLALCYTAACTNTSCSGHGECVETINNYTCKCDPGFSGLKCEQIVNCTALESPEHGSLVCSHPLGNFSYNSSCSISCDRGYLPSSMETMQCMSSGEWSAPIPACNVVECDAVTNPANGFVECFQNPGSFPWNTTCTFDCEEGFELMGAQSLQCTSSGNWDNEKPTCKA

[2] = molecular target: E-selectin:IgG chimera (UniProt P16581 22-301); test: as above
E-selectin:IgG chimera (UniProt P16581 22-301), sequence (P16581 22-301, change not shown): as above

| Binder | IC50 [1] | IC50 [2] |
| --- | --- | --- |
| IELLQAR [synthetic linear IELLQAR (SEQ ID NO:7) peptide] | 200 µM |  |
| IELLQAR (also: eight copies on branched MAPS core) [IELLQAR (SEQ ID NO:7) multivalent (Fmoc eight branch) peptide] | 10 µM |  |
| B1 |  | 100 µM |
